Laboratory results: patent US20260184782A1 (TWIST BIOSCIENCE, published 2026)

T1: recombinant human TIGIT (human, UniProt Q495A1 22-141, limits assumed)
T1 construct: recombinant human TIGIT used in Carterra SPR; also called hTIGIT
T1 sequence (looked up): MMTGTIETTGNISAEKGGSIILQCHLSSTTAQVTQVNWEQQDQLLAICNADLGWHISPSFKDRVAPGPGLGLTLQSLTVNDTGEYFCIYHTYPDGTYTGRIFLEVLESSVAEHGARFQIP


target: T1, recombinant human TIGIT; experiment: SPR Carterra, average
Description: Binding affinities of VHH-Fc proteins to recombinant human TIGIT were measured by SPR using a Carterra instrument (Table 10A). […] Average values reported from measurements from 1-2 samples.

Kd | koff | kon | Binder
0.00764 µM | 0.00717 s⁻¹ | 938000 M⁻¹ s⁻¹ | TIGIT-SC76 (Fc fusion, VHH-Fc fusion in assay) VHH: EVQLVESGGGLVQPGGSLRLSCAASGFTFSDYAMGWFRQAPGKERELVARIGHDGSTDYADSVKGRFTISADNSKNTAYLQMNSLKPEDTAVYYCLGGLDPWGQGTLVTVSS
0.0473 µM | 0.00232 s⁻¹ | 49100 M⁻¹ s⁻¹ | TIGIT-SC123 (Fc fusion, VHH-Fc fusion in assay) VHH: EVQLVESGGGLVQPGGSLRLSCAASGSIFSGNTMGWFRQAPGKEREFVAAISWSGAYTEYADSVKGRFTISADNSKNTAYLQMNSLKPEDTAVYYCAREGYYGSGSYLVYWGQGTLVTVSS
0.0291 µM | 0.00378 s⁻¹ | 132000 M⁻¹ s⁻¹ | TIGIT-SC83 (Fc fusion, VHH-Fc fusion in assay) VHH: EVQLVESGGGLVQPGGSLRLSCAASGRTFSDDAMGWFRQAPGKEREFVAAISRSGGNTYYADSVKGRFTISADNSKNTAYLQMNSLKPEDTAVYYCAKWFYYGSGLYTLDVWGQGTLVTVSS
0.057 µM | 0.00324 s⁻¹ | 56700 M⁻¹ s⁻¹ | TIGIT-SC82 (Fc fusion, VHH-Fc fusion in assay) VHH: EVQLVESGGGLVQPGGSLRLSCAASGSMSSNYAMGWFRQAPGKEREFVAAIDWSGGNTYYADSVKGRFTISADNSKNTAYLQMNSLKPEDTAVYYCAKWFYYGSGLYTLDVWGQGTLVTVSS
0.0126 µM | 0.00276 s⁻¹ | 219000 M⁻¹ s⁻¹ | TIGIT-SC69 (Fc fusion, VHH-Fc fusion in assay) VHH: EVQLVESGGGLVQPGGSLRLSCAASGGTFNGRAMGWFRQAPGKEREFVAAISSIGDTYYADSVKGRFTISADNSKNTAYLQMNSLKPEDTAVYYCARWRLDRRQGFYYAMDVWGQGTLVTVSS
0.022 µM | 0.00204 s⁻¹ | 92500 M⁻¹ s⁻¹ | TIGIT-SC88 (Fc fusion, VHH-Fc fusion in assay) VHH: EVQLVESGGGLVQPGGSLRLSCAASGFTFSSDWMGWFRQAPGKEREFVAAINRSGHSTSYADSVKGRFTISADNSKNTAYLQMNSLKPEDTAVYYCARWGGVTFGGVYPLEYWGQGTLVTVSS
0.0343 µM | 0.00498 s⁻¹ | 145000 M⁻¹ s⁻¹ | TIGIT-SC103 (Fc fusion, VHH-Fc fusion in assay) VHH: EVQLVESGGGLVQPGGSLRLSCAASGTITSAVFMGWFRQAPGKEREFVAAISWSGGDTNYADSVKGRFTISADNSKNTAYLQMNSLKPEDTAVYYCARWGGITFGGVYPLDYWGQGTLVTVSS
0.00542 µM | 0.0071 s⁻¹ | 1.31e+06 M⁻¹ s⁻¹ | TIGIT-SC91 (Fc fusion, VHH-Fc fusion in assay) VHH: EVQLVESGGGLVQPGGSLRLSCAASGFTFSNYAMGWFRQAPGKEREFVAAINWNSRSTYYADSVKGRFTISADNSKNTAYLQMNSLKPEDTAVYYCARWRSIWSGYDDYYYMDVWGQGTLVTVSS
0.0105 µM | 0.00436 s⁻¹ | 413000 M⁻¹ s⁻¹ | TIGIT-SC71 (Fc fusion, VHH-Fc fusion in assay) VHH: EVQLVESGGGLVQPGGSLRLSCAASGSIRSLNAMGWFRQAPGKEREFVAAINWDSARTYYADSVKGRFTISADNSKNTAYLQMNSLKPEDTAVYYCARWSAKRHSDTMTYYMDVWGQGTLVTVSS
0.0114 µM | 0.0015 s⁻¹ | 137000 M⁻¹ s⁻¹ | TIGIT-SC40 (Fc fusion, VHH-Fc fusion in assay) VHH: EVQLVESGGGLVQPGGSLRLSCAASGFSFDRWAMGWFRQAPGKERELVARISWNGGSTYYADSVKGRFTISADNSKNTAYLQMNSLKPEDTAVYYCARDDGWLQFMHWGQGTLVTVSS

The next lines start with the binder.

Binder | Kd | koff | kon
TIGIT-SC43 (Fc fusion, VHH-Fc fusion in assay) VHH: EVQLVESGGGLVQPGGSLRLSCAASGFTFADYAMGWFRQAPGKEREMVAAIGWNSGTTEYADSVKGRFTISADNSKNTAYLQMNSLKPEDTAVYYCARDTNGWFFDFWGQGTLVTVSS | 0.012 µM | 0.0013 s⁻¹ | 112000 M⁻¹ s⁻¹
TIGIT-SC9 (Fc fusion, VHH-Fc fusion in assay) VHH: EVQLVESGGGLVQPGGSLRLSCAASGNTFSGGFMGWFRQAPGKEREWVASVLRGGYTWYADSVKGRFTISADNSKNTAYLQMNSLKPEDTAVYYCVNGYSYGRDYWGQGTLVTVSS | 0.00935 µM | 0.00159 s⁻¹ | 268000 M⁻¹ s⁻¹
TIGIT-SC4 (Fc fusion, VHH-Fc fusion in assay) VHH: EVQLVESGGGLVQPGGSLRLSCAASGSIDRINAMGWFRQATGKEREWVASVLRGGYTWYADSVKGRFTISADNSKNTAYLQMNSLKPEDTAVYYCARDSYSTSFWFDPWGQGTLVTVSS | 0.00624 µM | 0.00222 s⁻¹ | 356000 M⁻¹ s⁻¹
TIGIT-SC122 (Fc fusion, VHH-Fc fusion in assay) VHH: EVQLVESGGGLVQPGGSLRLSCAASGFSFDDYVMGWFRQAPGKEREFVAAISMSGGYTHYADSVKGRFTISADNSKNTAYLQMNSLKPEDTAVYYCAREGYYGSGSYLVYWGQGTLVTVSS | 0.0107 µM | 0.00217 s⁻¹ | 524000 M⁻¹ s⁻¹
TIGIT-SC74 (Fc fusion, VHH-Fc fusion in assay) VHH: EVQLVESGGGLVQPGGSLRLSCAASGRTFANNAMGWFRQAPGKEREFVAAINWSGGNTYYADSVKGRFTISADNSKNTAYLQMNSLKPEDTAVYYCAKWSYYGSGLYGMDVWGQGTLVTVSS | 0.018 µM | 0.00329 s⁻¹ | 183000 M⁻¹ s⁻¹
TIGIT-SC75 (Fc fusion, VHH-Fc fusion in assay) VHH: EVQLVESGGGLVQPGGSLRLSCAASGFIGNYHAMGWFRQAPGKEREFVAAIRWSDGSSYYADSVKGRFTISADNSKNTAYLQMNSLKPEDTAVYYCAKWSYYGSGLYGMDVWGQGTLVTVSS | 0.00744 µM | 0.000376 s⁻¹ | 50500 M⁻¹ s⁻¹
TIGIT-SC70 (Fc fusion, VHH-Fc fusion in assay) VHH: EVQLVESGGGLVQPGGSLRLSCAASGRTFSSFAMGWFRQAPGKEREFVAAISGSGEDTYYADSVKGRFTISADNSKNTAYLQMNSLKPEDTAVYYCARWRLDRRQGFYYAMDVWGQGTLVTVSS | 0.0112 µM | 0.00359 s⁻¹ | 321000 M⁻¹ s⁻¹
TIGIT-SC7 (Fc fusion, VHH-Fc fusion in assay) VHH: EVQLVESGGGLVQPGGSLRLSCAASGRSFSMYVMGWFRQAPGKEREGVSFISGSDGSTLYADSVKGRFTISADNSKNTAYLQMNSLKPEDTAVYYCARGSIAARPVFFDYWGQGTLVTVSS | 0.0121 µM | 0.00372 s⁻¹ | 306000 M⁻¹ s⁻¹
TIGIT-SC33 (Fc fusion, VHH-Fc fusion in assay) VHH: EVQLVESGGGLVQPGGSLRLSCAASGFLFDSYAMGWFRQAPGKEREFVAAVSQSGLLTFYADSVKGRFTISADNSKNTAYLQMNSLKPEDTAVYYCASRTSSWWWFDPWGQGTLVTVSS | 0.00672 µM | 0.00107 s⁻¹ | 182000 M⁻¹ s⁻¹
TIGIT-SC106 (Fc fusion, VHH-Fc fusion in assay) VHH: EVQLVESGGGLVQPGGSLRLSCAASGFPFDDYAMGWFRQAPGKERELVAVIRWTGMSTHYADSVKGRFTISADNSKNTAYLQMNSLKPEDTAVYYCAKGIAVAGAFDYWGQGTLVTVSS | 0.00799 µM | 0.000753 s⁻¹ | 95500 M⁻¹ s⁻¹
TIGIT-SC55 (Fc fusion, VHH-Fc fusion in assay) VHH: EVQLVESGGGLVQPGGSLRLSCAASGFPFDDYAMGWFRQAPGKERELVAVIRWTGMNTHYADSVKGRFTISADNSKNTAYLQMNSLKPEDTAVYYCAKGIAVAGAFDYWGQGTLVTVSS | 0.0285 µM | 0.00231 s⁻¹ | 90600 M⁻¹ s⁻¹
TIGIT-SC86 (Fc fusion, VHH-Fc fusion in assay) VHH: EVQLVESGGGLVQPGGSLRLSCAASGIIASDSAMGWFRQAPGKEREFVAAIRWSGKETWYADSVKGRFTISADNSKNTAYLQMNSLKPEDTAVYYCARWGGVTFGGVYPLEYWGQGTLVTVSS | 0.00714 µM | 0.00212 s⁻¹ | 341000 M⁻¹ s⁻¹
TIGIT-SC92 (Fc fusion, VHH-Fc fusion in assay) VHH: EVQLVESGGGLVQPGGSLRLSCAASGSTIENYAMGWFRQAPGKEREFVAAIDWSGGSTYYADSVKGRFTISADNSKNTAYLQMNSLKPEDTAVYYCARWRSIWSGYDDYYYMDVWGQGTLVTVSS | 0.105 µM | 0.00289 s⁻¹ | 27500 M⁻¹ s⁻¹
TIGIT-SC93 (Fc fusion, VHH-Fc fusion in assay) VHH: EVQLVESGGGLVQPGGSLRLSCAASSRTVSSHAMGWFRQAPGKEREFVAAISWSGVTTYYADSVKGRFTISADNSKNTAYLQMNSLKPEDTAVYYCARWRSIWSGYDDYYYMDVWGQGTLVTVSS | 0.0499 µM | 0.00407 s⁻¹ | 81500 M⁻¹ s⁻¹
TIGIT-SC208 (Fc fusion, VHH-Fc fusion in assay) VHH: EVQLVESGGGLVQPGGSLRLSCAASGFLFDSYVMGWFRQAPGKEREFVAAIWRSGTLKAYADSVKGRFTISADNSKNTEYLQMNSLKPEDTAVYYCARDDYGDTRRYFQHWGQGTLVTVSS | 0.851 µM | 0.196 s⁻¹ | 231000 M⁻¹ s⁻¹
TIGIT-SC209 (Fc fusion, VHH-Fc fusion in assay) VHH: EVQLVESGGGLVQPGGSLRLSCAASGFLFNSYWMGWFRQAPGKEREFVAAIWRSGTLKAYADSVKGRFTISADNSKNTEYLQMNSLKPEDTAVYYCARDDYGDYRIYFQHWGQGTLVTVSS | 0.0414 µM | 0.000625 s⁻¹ | 15100 M⁻¹ s⁻¹
TIGIT-SC207 (Fc fusion, VHH-Fc fusion in assay) VHH: EVQLVESGGGLVQPGGSLRLSCAASGFAFSSYVMGWFRQAPGKEREFVAAIWRSGTLKAYADSVKGRFTISADNSKNTEYLQMNSLKPEDTAVYYCARDDYGDTRRYFQHWGQGTLVTVSS | 0.0122 µM | 0.00371 s⁻¹ | 528000 M⁻¹ s⁻¹
TIGIT-SC214 (Fc fusion, VHH-Fc fusion in assay) VHH: EVQLVESGGGLVQPGGSLRLSCAASGFTFGDSWMGWFRQAPGKEHEFVAAIWRSGTLKAYADSVKGRFTISADNSKNTAYLQMNSLKPEDTAVYYCTSYDAVAGTRDFWGQGTLVTVSS | 0.00613 µM | 0.0248 s⁻¹ | 4.05e+06 M⁻¹ s⁻¹
